Experimental data published in paper PMC5859130.

Key:
[1] = target: Single-chain t-PA
[2] = target: Ixonnexin (Ixodes scapularis) (UniProt Q4PMS3); experiment: SPR; Ixonnexin amine-coupled to a carboxymethylated dextran (CM5) chip, 726.2 RU; analytes injected 120 s at 30 µL/min, 25 °C, dissociation 600 s; global fit with the two-state (conformational change) model, Langmuir 1:1 for plasmin

Row | Substance | Km of plasmin generation (S2251) started with t-PA, with immobilized Ixonnexin (0.5 μg/ml) and increasing Glu-plasminogen [1] [µM] | Kd [2] [nM] | ka1 (two-state, first step) [2] [M⁻¹ s⁻¹] | ka2 (two-state, conformational change) [2] [s⁻¹] | kd1 (two-state, first step) [2] [s⁻¹] | kd2 (two-state, conformational change) [2] [s⁻¹] | koff [2] [s⁻¹] | kon [2] [M⁻¹ s⁻¹]
1 | Glu-plasminogen (natural protein) | 0.208 | 19.5 | 123000 | 0.022 | 0.057 | 0.00099 |  | 
2 | Plasmin (enzyme) |  | 197 |  |  |  |  | 0.29 | 1.48e+06
3 | Single-chain t-PA (enzyme) |  | 4.67 | 413000 | 0.0097 | 0.031 | 0.0015 |  | 
4 | Two-chain t-PA (enzyme) |  | 10.3 | 1.2e+06 | 0.011 | 0.43 | 0.0018 |  | 
